The record followed here is the nanobody polyreactivity screen of Harvey et al. (2022).

The data set can be described thus: yeast display, Sf9 membrane polyspecificity reagent, FACS + sequencing; frameworks hold sequencing errors. The procedure, abridged: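 Synthetic nanobody libraries on Saccharomyces cerevisiae BJ5465 were galactose-induced for 36–48 hours, stained 1 hour at 4 °C with 10% biotinylated, detergent-solubilized Sf9 membrane reagent and enriched on streptavidin microbeads. FACS then separated cells into low and high (top ~1%) gates by anti-HA (expression) and streptavidin (reagent binding) fluorescence. Genes were colony-PCR amplified, MiSeq 2 × 250 sequenced and CDR-length filtered. A clone's polyreactivity label is that of its gate of origin.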
In the case of “QVQLVESGGGLVQAGGSLRLSCAASGRILNINAMGWYRQAPGKERELVAAITWRGGRTFYADSVKGRFTISRDNAKNTVYLQMNSLKPEDTAVYYCAKGYRGYSYGYWGQGTQVTVSS”, the “polyreactivity (PSR sort gate)” value was “high polyreactivity”.

Consider “QVQLVESGGGYVQAGGSLRLSCAASGRTFLGYDMGWYRQAPGKERELVAAISSSGGSTYYADSVKGRFTISRDNAKNTVYLEMNSLKPEDTAVYYCAKRNRATGASGHRFGYWGQGTHVTVSS”, for which the “polyreactivity (PSR sort gate)” value is reported as “high polyreactivity”. Take “QVQLVESGGGLDQAGGSLRLSCAASGFTFASYAMGWYRQAPGKERELLAAITRSGGSTYYADSVKGRFTISRDNAKNTVYLHLTSLKPEDTAVYYCATDDEQHYYLLEYYYWGQGTQVTVSS”: the “polyreactivity (PSR sort gate)” value is listed as “low polyreactivity”.

Regarding “QVQLVESGGGLVQAGASLRLSCAASGRIFGVYAMGWYRQAPGKDRELVAGINGGDSTYYADSVKGRFTISRDNAKNTVYLQINSLKPEDTAVYYCAAQADESGSNYDYWGQGTQVTVSS”, the “polyreactivity (PSR sort gate)” value is on record as “low polyreactivity”. For the sequence “QVQLVESGGGLDQAGGSLRLSCPASGNIFTGNAMGWYRQAPGKEREFVAAISSVGGSTYYADSVKGRFTISRDNAKNTVYLQMNSLKPEDTAVYYCAASRVRYSYGYPYYYWGQGTQVTVSS”, the “polyreactivity (PSR sort gate)” value is “high polyreactivity”. Consider “QVQLVESGGALVQAGGSLRLSCAASGLTFRDNAIGWYRKAPGKERELVDAISTNGGSTYYADSVKGRFTISRDNAKNTVYLQMYSLKPEVTAVYYCAADYDYQYRYYYWGQGTQVTVTS”, for which the “polyreactivity (PSR sort gate)” value is “low polyreactivity”. “QVQLVESGGGLVQAGGSLRLSCAASGSTFRYNAMGWYRQAPGKERELVAAISSGSSTNYADSVKGRFSISRDNAKNTVYLQMNSLKPEDTAVYYCAAQPGYYDDFYYWGQGTQVTVSS”: the “polyreactivity (PSR sort gate)” value was “low polyreactivity”. With “QVQLVESGGGLFQEGGSLRLSCAASGSTFANYVMGWYRQAPGKEREFVAGITRSGGSTYYADSVKGRFTISRDNAKNTVYLQMNSLKPEDTAVYYCNKVRRASYYYEYDYWGQVTQVTVSS”, the “polyreactivity (PSR sort gate)” value is recorded as “low polyreactivity”. For the sequence “QVQLVESGGGLVQAGGSLRLSCAASGRTFRVYAIGWYRQAPGKERELVAAISGSGGSTYYADSVKGRFTISRDNAKNTVYLQMISLKPEDTAVYYCAKGSYRSYWYRAYDYWGQGTQVTVSS”, the “polyreactivity (PSR sort gate)” value is reported as “low polyreactivity”. With “QVQLVESGGGLVQAGGRLRLSCAASGRIFQYNAMGWYRQAPGKERELVAAITSSGGSTYYADSVKGRFTISRDNAKNTVYLQMNSLKPEDTAVYYCAAKRPQYYVQFGYWGHGTQVTVSS”, the “polyreactivity (PSR sort gate)” value is “high polyreactivity”. On to “QVQLVESGGGLVQAGGSLRLSCAASGSISNQYVMGWYRQAPGKERELVAAIRVIGGSTSYADSVKGRFTISRDNAKNTVYLQMNSLKPEDTAVYYCAADWAWTISDGYYYGYPQYDYWGQGTQVTVSS”, for which the “polyreactivity (PSR sort gate)” value is reported as “high polyreactivity”. With “QVQLVESGGGLVQAGGSLRLSCAASGRIFMNYDMGWYRQPPGKERELVADISISGSTDYADSVKGRFTISRDNAKNTVYLQMNSLKPEDTAVYYCATSFYVSDYYVPYEMGYWGQGTQVTVSS”, the “polyreactivity (PSR sort gate)” value was “low polyreactivity”. For “QVQLLESGGGLVQAGGSLRLSCAASGRTFTYYAMGWYRQAPGKERELVASISTTGRTYYADSVKGRFTISRDNAKNTVYLQMNSLKPDDTAVYYCATRSRYYYDYWGQGTQVTVSS”, the “polyreactivity (PSR sort gate)” value is “high polyreactivity”. In the case of “QVQLVESGGGLVQAGGSLRLSCAASGSIFPYNAMGWYRPAPGKERELVATISSGGSTNYADSVKGRFTISRDNAMNTVYLQMNIMKPEDTAVYYCAKETIGQDPVSGAWARHEYDYWGQGTQVTVSS”, the “polyreactivity (PSR sort gate)” value is recorded as “low polyreactivity”. With “QVQLVESGGGLVQAGGSLRLSCAASGYLLGHYAMGWYRQATGKERELVAAISWSGGSTSYADSVKGRFTISRDKAKITFYLQMNSLKREDTAVYDCASAYYAYSRHAGGYWGQGTQVTVSS”, the “polyreactivity (PSR sort gate)” value is “low polyreactivity”.

In the case of “QVQLVESGGGLVQAGGSLRLSCAASGFTLKWYAMGWYRQAPGKERELVAAINDRGGNTYYADSVKGRFTISRDNAKNTVYLQMNSLKPEDTAVYYCAVRGKTYRPYYYWGQGTQVTVSS”, the “polyreactivity (PSR sort gate)” value is given as “high polyreactivity”. With “QVQLVESGGGLVQAGGSLRLSCAASGRIYRYYAMGWYRQPPAKERELVAAIRRGGSTSYADSVKGRFTISRDNAKNTVYLQMNSLKPEDTAVYYCAATQYYRGYDYWGQGTQVTVSS”, the “polyreactivity (PSR sort gate)” value is “high polyreactivity”. To “HVQLVESGGGLVQPGGSLRLSCAASGLTFPSYAMGWYRQAPGKERELVAAISSGDSTNYADSVKGRFTISRDNAKNTVYLQMNSLKPEDTAVYYCAVGLPHGGRSLYGSWYRFDYWGQGTQVTVSS” belongs “low polyreactivity”; to “QVQLVESGGGLVQAGGSLRLSCAASGFTFPYYAKGWYRQAPGKERELVAASTYSGDSTDYADSVKGRFTISRDNAKNTVYLQMNSLKPEDTAVYYCNVTPDCAVTDDYWGQGTQVTVSS”, “low polyreactivity”; to “QVQLVESGGGLVQAGGSLRLSCAASGFTFTYNDMGWYRQAPGKEREFVAAISSTGGSTYYADSVKGRFTISRDNAKNTVYLQMNSLKPEDTAVYYCAAEDSWYWDAWFDYWGQGTQVTVSS”, “low polyreactivity”.

With “QVQLVESGGGLVQAGGSLRLSCAASGRTFWRNAMGWYRQAPGKERELVAAINSGGRTYYADSVKGRFTISRDNAKNTVYLQMNSLKPEDTAVYYCAVYVHRFLDGRVRSYRGDYWGQGTQVTVSW”, the “polyreactivity (PSR sort gate)” value is listed as “high polyreactivity”. Consider “QVQLVESGGGLVQAGGSLRLSCAASGSIFDPYAMGWYRQAPGKERELVAGISFSGGRTYYADSVKGRFTISRDNAKNTVYLQMNSLKPEDTAVYYCNKLLTQGAYPYYYWGQGTQVTVSS”, for which the “polyreactivity (PSR sort gate)” value is recorded as “high polyreactivity”. Turning to “QVQLVESGGGLVQAGGSLRLSCAASGSIFKFYAMGWNRQAPGKERAFVAAITYRGGSTYYADSVKGRFTISRDNAKNTVYLQMNRLKPEDTAVYYCNAVVLRWRGYLVPFNYWGQGTQVTVSS”, the “polyreactivity (PSR sort gate)” value is “high polyreactivity”. In the case of “QVQLVESGGGLVQAGGSLRLSCAASGSIFSSYAMGWYRQAPGKERELVAAISKSGVSTYYADSVKGRFTISRDNAKNTVYLQMNSLKPEDTAVYYCNAKGKYWHYDYWGQGTQVTVSS”, the “polyreactivity (PSR sort gate)” value is “high polyreactivity”.

Take “QDQLVESGGGLVQAGGSHRLSCAASGFISDKNAMGWYRQAPRKERELVAAISQRGDRTYYADSVKGRFTISRDNAKNTVYLQMNSLKPEDTAVYYCGYLVRYHHLRYWGQGTQVTVSS”: the “polyreactivity (PSR sort gate)” value is reported as “high polyreactivity”. For “QVQLVESGGGLVQAGGSLRLSCAASGSTFQGYAMGWYRQAPGKERELVAAINYSGGSTYYADSVKGRFTISRDNAKNTVYFQMNSLKPEDTAVYYCAVKLRSRAVTSYGYWGQGTQVTVSS”, the “polyreactivity (PSR sort gate)” value is given as “high polyreactivity”. To “QVQLVESGGGLVQAGGSLRLSCAASGFTFIGNAMGWYRQAPGKERELVAAISWRGGSTYYADSVKGRFTISRDNAKNTVYLQMNSLKPEDTAVYYCNKVPRRVSRSERDYWGQGTQVTVSS” belongs “high polyreactivity”. Consider “QVQLVESGGGLVQAGGSLRLSCAASGRTFRFNAMGWYRQAPGKEREFVAAITSGGGTYYADSVKGRFTISRDNGKNTVYLQMNSLKPEDTAVYYCATVGKVHHRLVAMDYWGQGTQVTVSS”, for which the “polyreactivity (PSR sort gate)” value is “low polyreactivity”. Turning to “QVQLVESGGGLVQAGGSLRLSCAASGRIFWYYAMVWYRQAPGKERELVATISSRSGSTYYADSVKGRFTISRDNAKNTVYLQMNSLKPEDTAVYYCAAGTPYYLGYRHNYWGQGTQVTVSS”, the “polyreactivity (PSR sort gate)” value is “high polyreactivity”. As for “QVQLVESGGGLVQAGGSLRVSCAASGSIFSIYAMGWYRQAPGKERELVASITRSSGRTYYADSVKGRFTISRDNAKKTVYLQMNSLKPEDTAVYYCAKDYIPLALDADDYWGQGTQVSVSS”, the “polyreactivity (PSR sort gate)” value is “low polyreactivity”.
